Reference: the supplement of paper PMC9112550, “Optimization of the antimicrobial peptide Bac7 by deep mutational scanning” (BMC Biology, 2022)

Tested on: Escherichia coli TOP10
Experiment: shrunken log2 fold change of peptide-encoding DNA abundance (4.5 h post-induction vs induction); higher = less antimicrobial activity (less host growth inhibition)
Details: time post-induction: 4.5 h; library: site-saturation at positions 5, 18, 19, 20
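Note: peptides expressed intracellularly from a pBAD plasmid library in pooled LB shake-flask culture, induced with 0.3% L-arabinose, DNA abundance read by NGS, three biological replicates, DESeq2 with apeglm shrinkage.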

| Sequence | shrunken log2 fold change |
| --- | --- |
| RRIRWRPPRLPRPRPRPCPPPRP | -0.463 |
| RRIRWRPPRLPRPRPRPCQDPRP | -0.0575 |
| RRIRWRPPRLPRPRPRPCRPPRP | 0.115 |
| RRIRWRPPRLPRPRPRPCSDPRP | 0.273 |
| RRIRWRPPRLPRPRPRPCTIPRP | -0.138 |
| RRIRWRPPRLPRPRPRPCVEPRP | 0.153 |
| RRIRWRPPRLPRPRPRPCVPPRP | -0.035 |
| RRIRWRPPRLPRPRPRPCWCPRP | -0.215 |
| RRIRWRPPRLPRPRPRPCWIPRP | -0.072 |
| RRIRWRPPRLPRPRPRPCYHPRP | -0.123 |
| RRIRWRPPRLPRPRPRPCYIPRP | -0.46 |
| RRIRWRPPRLPRPRPRPDARPRP | -0.018 |
| RRIRWRPPRLPRPRPRPDETPRP | 0.0169 |
| RRIRWRPPRLPRPRPRPDFEPRP | 0.385 |
| RRIRWRPPRLPRPRPRPDFQPRP | 0.0985 |
| RRIRWRPPRLPRPRPRPDGEPRP | 0.0237 |
| RRIRWRPPRLPRPRPRPDHEPRP | -0.0396 |
| RRIRWRPPRLPRPRPRPDHVPRP | -0.13 |
| RRIRWRPPRLPRPRPRPDIRPRP | -0.0808 |
| RRIRWRPPRLPRPRPRPDKEPRP | 0.0411 |
| RRIRWRPPRLPRPRPRPDLQPRP | -0.0193 |
| RRIRWRPPRLPRPRPRPDLRPRP | -0.00728 |
| RRIRWRPPRLPRPRPRPDMMPRP | -0.0236 |
| RRIRWRPPRLPRPRPRPDMNPRP | 0.143 |
| RRIRWRPPRLPRPRPRPDNGPRP | 0.0563 |

| Sequence | shrunken log2 fold change |
| --- | --- |
| RRIRWRPPRLPRPRPRPDNVPRP | -0.26 |
| RRIRWRPPRLPRPRPRPDPVPRP | 0.0369 |
| RRIRWRPPRLPRPRPRPDRNPRP | 0.0394 |
| RRIRWRPPRLPRPRPRPDSCPRP | -0.0201 |
| RRIRWRPPRLPRPRPRPDVCPRP | -0.0101 |
| RRIRWRPPRLPRPRPRPDVFPRP | 0.019 |
| RRIRWRPPRLPRPRPRPDVGPRP | 0.181 |
| RRIRWRPPRLPRPRPRPDVWPRP | 0.373 |
| RRIRWRPPRLPRPRPRPDVYPRP | 0.00123 |
| RRIRWRPPRLPRPRPRPDWNPRP | 0.0393 |
| RRIRWRPPRLPRPRPRPDWVPRP | 0.253 |
| RRIRWRPPRLPRPRPRPDYKPRP | -0.0643 |
| RRIRWRPPRLPRPRPRPDYNPRP | -0.288 |
| RRIRWRPPRLPRPRPRPDYYPRP | -0.218 |
| RRIRWRPPRLPRPRPRPEACPRP | 1.5 |
| RRIRWRPPRLPRPRPRPECGPRP | 1.37 |
| RRIRWRPPRLPRPRPRPECSPRP | 0.966 |
| RRIRWRPPRLPRPRPRPECTPRP | 0.255 |
| RRIRWRPPRLPRPRPRPEDGPRP | 0.173 |
| RRIRWRPPRLPRPRPRPEFMPRP | 0.635 |
| RRIRWRPPRLPRPRPRPEGAPRP | 1.13 |
| RRIRWRPPRLPRPRPRPEGDPRP | 0.166 |
| RRIRWRPPRLPRPRPRPEGLPRP | 0.267 |
| RRIRWRPPRLPRPRPRPEGMPRP | 0.999 |
| RRIRWRPPRLPRPRPRPEGVPRP | 0.601 |

| Sequence | shrunken log2 fold change |
| --- | --- |
| RRIRWRPPRLPRPRPRPEIGPRP | 0.0225 |
| RRIRWRPPRLPRPRPRPEIMPRP | 1.1 |
| RRIRWRPPRLPRPRPRPEKRPRP | 0.028 |
| RRIRWRPPRLPRPRPRPEMIPRP | 0.0062 |
| RRIRWRPPRLPRPRPRPEMQPRP | 1.12 |
| RRIRWRPPRLPRPRPRPEMWPRP | 1.05 |
| RRIRWRPPRLPRPRPRPENSPRP | 0.0193 |
| RRIRWRPPRLPRPRPRPEQKPRP | 0.0146 |
| RRIRWRPPRLPRPRPRPERTPRP | 1.08 |
| RRIRWRPPRLPRPRPRPESEPRP | 0.916 |
| RRIRWRPPRLPRPRPRPESVPRP | 0.192 |
| RRIRWRPPRLPRPRPRPESYPRP | -0.134 |
| RRIRWRPPRLPRPRPRPEVAPRP | 1.25 |
| RRIRWRPPRLPRPRPRPEVDPRP | 1.87 |
| RRIRWRPPRLPRPRPRPEVMPRP | 0.00589 |
| RRIRWRPPRLPRPRPRPEVQPRP | 0.69 |
| RRIRWRPPRLPRPRPRPEWQPRP | 0.0276 |
| RRIRWRPPRLPRPRPRPEYVPRP | 0.214 |
| RRIRWRPPRLPRPRPRPEYWPRP | 0.388 |
| RRIRWRPPRLPRPRPRPFAEPRP | 0.801 |
| RRIRWRPPRLPRPRPRPFCAPRP | 0.23 |
| RRIRWRPPRLPRPRPRPFCRPRP | 0.0689 |
| RRIRWRPPRLPRPRPRPFCYPRP | -0.418 |
| RRIRWRPPRLPRPRPRPFEEPRP | 0.43 |
| RRIRWRPPRLPRPRPRPFEFPRP | -0.182 |

| Sequence | shrunken log2 fold change |
| --- | --- |
| RRIRWRPPRLPRPRPRPFELPRP | -0.285 |
| RRIRWRPPRLPRPRPRPFFKPRP | -0.0879 |
| RRIRWRPPRLPRPRPRPFGHPRP | -0.102 |
| RRIRWRPPRLPRPRPRPFGLPRP | 0.0452 |
| RRIRWRPPRLPRPRPRPFHGPRP | -0.229 |
| RRIRWRPPRLPRPRPRPFHMPRP | -0.138 |
| RRIRWRPPRLPRPRPRPFINPRP | -0.635 |
| RRIRWRPPRLPRPRPRPFIYPRP | -0.467 |
| RRIRWRPPRLPRPRPRPFKAPRP | 0.0343 |
| RRIRWRPPRLPRPRPRPFMFPRP | -0.0915 |
| RRIRWRPPRLPRPRPRPFMKPRP | -0.128 |
| RRIRWRPPRLPRPRPRPFMNPRP | -0.11 |
| RRIRWRPPRLPRPRPRPFNFPRP | -0.272 |
| RRIRWRPPRLPRPRPRPFNNPRP | -0.494 |
| RRIRWRPPRLPRPRPRPFNPPRP | -0.389 |
| RRIRWRPPRLPRPRPRPFPKPRP | 0.0146 |
| RRIRWRPPRLPRPRPRPFRQPRP | -0.0956 |
| RRIRWRPPRLPRPRPRPFSPPRP | 0.0392 |
| RRIRWRPPRLPRPRPRPFSWPRP | 0.0632 |
| RRIRWRPPRLPRPRPRPFTGPRP | 0.0256 |
| RRIRWRPPRLPRPRPRPFTLPRP | 3.06 |
| RRIRWRPPRLPRPRPRPFVNPRP | -0.483 |
| RRIRWRPPRLPRPRPRPFWHPRP | -0.0195 |
| RRIRWRPPRLPRPRPRPGAAPRP | 1.06 |
| RRIRWRPPRLPRPRPRPGCKPRP | 0.123 |

| Sequence | shrunken log2 fold change |
| --- | --- |
| RRIRWRPPRLPRPRPRPGCRPRP | 0.417 |
| RRIRWRPPRLPRPRPRPGDNPRP | 0.106 |
| RRIRWRPPRLPRPRPRPGDTPRP | -0.0199 |
| RRIRWRPPRLPRPRPRPGFTPRP | 0.132 |
| RRIRWRPPRLPRPRPRPGIEPRP | 0.281 |
| RRIRWRPPRLPRPRPRPGIKPRP | -0.168 |
| RRIRWRPPRLPRPRPRPGIMPRP | 0.238 |
| RRIRWRPPRLPRPRPRPGKCPRP | 0.0425 |
| RRIRWRPPRLPRPRPRPGKRPRP | 0.37 |
| RRIRWRPPRLPRPRPRPGKYPRP | -0.227 |
| RRIRWRPPRLPRPRPRPGMFPRP | 0.281 |
| RRIRWRPPRLPRPRPRPGNAPRP | 0.146 |
| RRIRWRPPRLPRPRPRPGNLPRP | -0.00261 |
| RRIRWRPPRLPRPRPRPGNNPRP | 0.1 |
| RRIRWRPPRLPRPRPRPGQLPRP | -0.0402 |
| RRIRWRPPRLPRPRPRPGRAPRP | 0.71 |
| RRIRWRPPRLPRPRPRPGRWPRP | 0.742 |
| RRIRWRPPRLPRPRPRPGSHPRP | 0.0507 |
| RRIRWRPPRLPRPRPRPGSKPRP | 0.0611 |
| RRIRWRPPRLPRPRPRPGTHPRP | 0.158 |
| RRIRWRPPRLPRPRPRPGTIPRP | -0.283 |
| RRIRWRPPRLPRPRPRPGVFPRP | 0.224 |
| RRIRWRPPRLPRPRPRPGYDPRP | -0.0098 |
| RRIRWRPPRLPRPRPRPHAMPRP | 0.00797 |
| RRIRWRPPRLPRPRPRPHCDPRP | 0.135 |

| Sequence | shrunken log2 fold change |
| --- | --- |
| RRIRWRPPRLPRPRPRPHDPPRP | 0.23 |
| RRIRWRPPRLPRPRPRPHGNPRP | 0.132 |
| RRIRWRPPRLPRPRPRPHHCPRP | -0.239 |
| RRIRWRPPRLPRPRPRPHHIPRP | -0.612 |
| RRIRWRPPRLPRPRPRPHHMPRP | -0.592 |
| RRIRWRPPRLPRPRPRPHHPPRP | 0.0415 |
| RRIRWRPPRLPRPRPRPHHVPRP | -0.108 |
| RRIRWRPPRLPRPRPRPHIHPRP | -0.359 |
| RRIRWRPPRLPRPRPRPHKTPRP | 0.175 |
| RRIRWRPPRLPRPRPRPHMRPRP | 0.494 |
| RRIRWRPPRLPRPRPRPHNFPRP | -0.0122 |
| RRIRWRPPRLPRPRPRPHNNPRP | -0.749 |
| RRIRWRPPRLPRPRPRPHNQPRP | -0.445 |
| RRIRWRPPRLPRPRPRPHNRPRP | -0.205 |
| RRIRWRPPRLPRPRPRPHPDPRP | 0.0175 |
| RRIRWRPPRLPRPRPRPHRAPRP | -0.0058 |
| RRIRWRPPRLPRPRPRPHRLPRP | -0.0123 |
| RRIRWRPPRLPRPRPRPHRNPRP | -0.255 |
| RRIRWRPPRLPRPRPRPHSRPRP | 0.194 |
| RRIRWRPPRLPRPRPRPHSTPRP | -0.209 |
| RRIRWRPPRLPRPRPRPHTEPRP | -0.0123 |
| RRIRWRPPRLPRPRPRPHVAPRP | 0.181 |
| RRIRWRPPRLPRPRPRPHVIPRP | -0.13 |
| RRIRWRPPRLPRPRPRPHWEPRP | 0.323 |
| RRIRWRPPRLPRPRPRPHWTPRP | -0.158 |
